# B1: library; numbered along this chain (parent)
# chain: MRKPRAAVGSGHRKQAASQEGRQKHAKNNSQAKPSACDGLARQPEEVVLQASVSSYHLFRDVAEVTAFRGSLLSWYDQEKRDLPWRRRAEDEMDLDRRAYAVWVSEVMLQQTQVATVINYYTGWMQKWPTLQDLASASLEEVNQLWAGLGYYSRGRRLQEGARKVVEELGGHMPRTAETLQQLLPGVGRYTAGAIASIAFGQATGVVDGNVARVLCRVRAIGADPSSTLVSQQLWGLAQQLVDPARPGDFNQAAMELGATVCTPQRPLCSQCPVESLCRARQRVEQEQLLASGSLSGSPDVEECAPNTGQCHLCLPPSEPWDQTLGVVNFPRKASRKPPREESSATCVLEQPGALGAQILLVQRPNSGLLAGLWEFPSVTWEPSEQLQRKALLQELQRWAGPLPATHLRHLGEVVHTFSHIKLTYQVYGLALEGQTPVTTVPPGARWLTQEEFHTAAVSTAMKKVFRVYQGQQPGTCMGSKRSQVSSPCSRKKPRMGQQVLDNFFRSHISTDAHSLNSAAQ
# Variants of: B1
# Assay: 8OG:A repair function score (normalized; synonymous = 0, nonsense = -1) (normalized log-likelihood score); higher = more repair activity (WT-like)
# Details: with 8OG:A DNA repair reporter (GFP) in HEK-293 MUTYH KO cells
# Description: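 Saturation mutagenesis (NNN codon scan) of the MUTYH cDNA (521-aa nuclear isoform NM_001048174.1 / NP_001041639), stably expressed under doxycycline induction in HEK-293 MUTYH knockout cells. Cells were co-transfected with an 8OG:A-bearing GFP repair reporter plus mCherry and sorted 72 h later into GFP+ and GFP− bins, three replicates per tile. The Rosace log2 enrichment (GFP+ vs GFP−) was converted per tile to a normalized function score with synonymous variants centered at 0 and nonsense variants (codons 1-471) at -1; low-abundance variants were removed.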
row,Variant,8OG:A repair function score
1,MRKPRAAVGSGHRKQAASQEGRQKHAKNNSQAKPSACDGLARQPEEVVLQASVSSYHLFRDVAEVTAFRGSLLSWYDQEKRDLPWRRRAEDEMDLDRRAYAVWVSEVMLQQTQVATVINYYTGWMQKWPTLQDLAYASLEEVNQLWAGLGYYSRGRRLQEGARKVVEELGGHMPRTAETLQQLLPGVGRYTAGAIASIAFGQATGVVDGNVARVLCRVRAIGADPSSTLVSQQLWGLAQQLVDPARPGDFNQAAMELGATVCTPQRPLCSQCPVESLCRARQRVEQEQLLASGSLSGSPDVEECAPNTGQCHLCLPPSEPWDQTLGVVNFPRKASRKPPREESSATCVLEQPGALGAQILLVQRPNSGLLAGLWEFPSVTWEPSEQLQRKALLQELQRWAGPLPATHLRHLGEVVHTFSHIKLTYQVYGLALEGQTPVTTVPPGARWLTQEEFHTAAVSTAMKKVFRVYQGQQPGTCMGSKRSQVSSPCSRKKPRMGQQVLDNFFRSHISTDAHSLNSAAQ [S136Y],0.0366
2,MRKPRAAVGSGHRKQAASQEGRQKHAKNNSQAKPSACDGLARQPEEVVLQASVSSYHLFRDVAEVTAFRGSLLSWYDQEKRDLPWRRRAEDEMDLDRRAYAVWVSEVMLQQTQVATVINYYTGWMQKWPTLQDLAWASLEEVNQLWAGLGYYSRGRRLQEGARKVVEELGGHMPRTAETLQQLLPGVGRYTAGAIASIAFGQATGVVDGNVARVLCRVRAIGADPSSTLVSQQLWGLAQQLVDPARPGDFNQAAMELGATVCTPQRPLCSQCPVESLCRARQRVEQEQLLASGSLSGSPDVEECAPNTGQCHLCLPPSEPWDQTLGVVNFPRKASRKPPREESSATCVLEQPGALGAQILLVQRPNSGLLAGLWEFPSVTWEPSEQLQRKALLQELQRWAGPLPATHLRHLGEVVHTFSHIKLTYQVYGLALEGQTPVTTVPPGARWLTQEEFHTAAVSTAMKKVFRVYQGQQPGTCMGSKRSQVSSPCSRKKPRMGQQVLDNFFRSHISTDAHSLNSAAQ [S136W],-0.154
3,MRKPRAAVGSGHRKQAASQEGRQKHAKNNSQAKPSACDGLARQPEEVVLQASVSSYHLFRDVAEVTAFRGSLLSWYDQEKRDLPWRRRAEDEMDLDRRAYAVWVSEVMLQQTQVATVINYYTGWMQKWPTLQDLAVASLEEVNQLWAGLGYYSRGRRLQEGARKVVEELGGHMPRTAETLQQLLPGVGRYTAGAIASIAFGQATGVVDGNVARVLCRVRAIGADPSSTLVSQQLWGLAQQLVDPARPGDFNQAAMELGATVCTPQRPLCSQCPVESLCRARQRVEQEQLLASGSLSGSPDVEECAPNTGQCHLCLPPSEPWDQTLGVVNFPRKASRKPPREESSATCVLEQPGALGAQILLVQRPNSGLLAGLWEFPSVTWEPSEQLQRKALLQELQRWAGPLPATHLRHLGEVVHTFSHIKLTYQVYGLALEGQTPVTTVPPGARWLTQEEFHTAAVSTAMKKVFRVYQGQQPGTCMGSKRSQVSSPCSRKKPRMGQQVLDNFFRSHISTDAHSLNSAAQ [S136V],0.077
4,MRKPRAAVGSGHRKQAASQEGRQKHAKNNSQAKPSACDGLARQPEEVVLQASVSSYHLFRDVAEVTAFRGSLLSWYDQEKRDLPWRRRAEDEMDLDRRAYAVWVSEVMLQQTQVATVINYYTGWMQKWPTLQDLASISLEEVNQLWAGLGYYSRGRRLQEGARKVVEELGGHMPRTAETLQQLLPGVGRYTAGAIASIAFGQATGVVDGNVARVLCRVRAIGADPSSTLVSQQLWGLAQQLVDPARPGDFNQAAMELGATVCTPQRPLCSQCPVESLCRARQRVEQEQLLASGSLSGSPDVEECAPNTGQCHLCLPPSEPWDQTLGVVNFPRKASRKPPREESSATCVLEQPGALGAQILLVQRPNSGLLAGLWEFPSVTWEPSEQLQRKALLQELQRWAGPLPATHLRHLGEVVHTFSHIKLTYQVYGLALEGQTPVTTVPPGARWLTQEEFHTAAVSTAMKKVFRVYQGQQPGTCMGSKRSQVSSPCSRKKPRMGQQVLDNFFRSHISTDAHSLNSAAQ [A137I],-0.286
5,MRKPRAAVGSGHRKQAASQEGRQKHAKNNSQAKPSACDGLARQPEEVVLQASVSSYHLFRDVAEVTAFRGSLLSWYDQEKRDLPWRRRAEDEMDLDRRAYAVWVSEVMLQQTQVATVINYYTGWMQKWPTLQDLASKSLEEVNQLWAGLGYYSRGRRLQEGARKVVEELGGHMPRTAETLQQLLPGVGRYTAGAIASIAFGQATGVVDGNVARVLCRVRAIGADPSSTLVSQQLWGLAQQLVDPARPGDFNQAAMELGATVCTPQRPLCSQCPVESLCRARQRVEQEQLLASGSLSGSPDVEECAPNTGQCHLCLPPSEPWDQTLGVVNFPRKASRKPPREESSATCVLEQPGALGAQILLVQRPNSGLLAGLWEFPSVTWEPSEQLQRKALLQELQRWAGPLPATHLRHLGEVVHTFSHIKLTYQVYGLALEGQTPVTTVPPGARWLTQEEFHTAAVSTAMKKVFRVYQGQQPGTCMGSKRSQVSSPCSRKKPRMGQQVLDNFFRSHISTDAHSLNSAAQ [A137K],-0.626
6,MRKPRAAVGSGHRKQAASQEGRQKHAKNNSQAKPSACDGLARQPEEVVLQASVSSYHLFRDVAEVTAFRGSLLSWYDQEKRDLPWRRRAEDEMDLDRRAYAVWVSEVMLQQTQVATVINYYTGWMQKWPTLQDLASFSLEEVNQLWAGLGYYSRGRRLQEGARKVVEELGGHMPRTAETLQQLLPGVGRYTAGAIASIAFGQATGVVDGNVARVLCRVRAIGADPSSTLVSQQLWGLAQQLVDPARPGDFNQAAMELGATVCTPQRPLCSQCPVESLCRARQRVEQEQLLASGSLSGSPDVEECAPNTGQCHLCLPPSEPWDQTLGVVNFPRKASRKPPREESSATCVLEQPGALGAQILLVQRPNSGLLAGLWEFPSVTWEPSEQLQRKALLQELQRWAGPLPATHLRHLGEVVHTFSHIKLTYQVYGLALEGQTPVTTVPPGARWLTQEEFHTAAVSTAMKKVFRVYQGQQPGTCMGSKRSQVSSPCSRKKPRMGQQVLDNFFRSHISTDAHSLNSAAQ [A137F],-0.738

# From the supplement of paper PMC11908140
